# Laboratory results published in patent US20180155451A1 (published 2018).
# Residue numbers refer to the chain shown, from its start. In names and notes the source's numbering stands.
# T1: FcγRIIa H (human, UniProt P12318 34-217)
# T1 construct: extracellular domain; also called FcgRIIa H; FcγRIIa type H; not shown: His tag attached to the C terminus
# T1 sequence (looked up): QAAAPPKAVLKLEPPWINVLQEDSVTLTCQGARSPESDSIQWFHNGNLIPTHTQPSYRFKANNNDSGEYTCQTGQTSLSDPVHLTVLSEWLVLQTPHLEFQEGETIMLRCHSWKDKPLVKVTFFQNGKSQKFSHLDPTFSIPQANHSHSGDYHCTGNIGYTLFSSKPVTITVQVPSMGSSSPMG
# T2: FcγRIIb (human, UniProt P31994 43-217)
# T2 construct: extracellular domain; also called FcgRIIb; 2b; not shown: His tag attached to the C terminus
# T2 sequence (looked up): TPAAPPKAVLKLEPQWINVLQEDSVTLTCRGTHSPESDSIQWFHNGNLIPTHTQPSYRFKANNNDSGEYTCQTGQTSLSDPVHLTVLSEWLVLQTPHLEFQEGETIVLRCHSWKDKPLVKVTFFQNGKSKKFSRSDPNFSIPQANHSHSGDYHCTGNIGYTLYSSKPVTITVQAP
# B1: GpH7-TA4/GpH7-B3/GpL16-k0 (antibody, human IgG1, kappa)
# heavy 1: QVQLVQSGAEVKKPGASVTVSCKASGYTFTDYEMHWIRQPPGEGLEWIGAIDPKTGDTAYSESFQDRVTLTADKSTSTAYMELSSLTSEDTAVYYCTRFYSYTYWGQGTLVTVSSASTKGPSVFPLAPSSKSTSGGTAALGCLVKDYFPEPVTVSWNSGALTSGVHTFPAVLQSSGLYSLSSVVTVPSSSLGTQTYICNVNHKPSNTKVDKKVEPKSCDKTHTCPPCPAPEYLWGPSVFLFPPKPKDTLMISRTPEVTCVVVDVSHEDPEVKFNWYVDGVEVHNAKTKPREEQYNSTYRVVSVLTVLHQDWLNGKEYKCKVSNKALPAPIEKTISKAKGQPREPQVYTLPPSRKELTKNQVSLTCLVKGFYPSDIAVEWESNGQPENNYKTTPPVLDSDGSFFLYSKLTVDKSRWQQGNVFSCSVMHEALHNRYTQKSLSLSP
# heavy 2: not shown
# light: DIVMTQSPLSLPVTPGEPASISCQASESLVHSNRNTYLHWYLQKPGQSPQLLIYKVSNRFSGVPDRFSGSGSGTDFTLKISRVEAEDVGVYYCSQNTHVPPTFGQGTKVEIERTVAAPSVFIFPPSDEQLKSGTASVVCLLNNFYPREAKVQWKVDNALQSGNSQESVTEQDSKDSTYSLSSTLTLSKADYEKHKVYACEVTHQGLSSPVTKSFNRGEC
# notes: H1 L234Y and G236W
# B2: GpH7-TA5/GpH7-B3-03-20W/GpL16-k0 (antibody, human IgG1, kappa)
# heavy 1: B1 heavy 1 with W234G, S296A
# heavy 2: not shown
# light: B1 light
# notes: H1 L234Y and S298A; H2 G236W
# B3: GpH7-TA7/GpH7-B3/GpL16-k0 (antibody, human IgG1, kappa)
# heavy 1: B1 heavy 1 with S296A
# heavy 2: not shown
# light: B1 light
# notes: H1 L234Y, G236W and S298A
# B4: GpH7-TA6/GpH7-B3-01-15Y/GpL16-k0 (antibody, human IgG1, kappa)
# heavy 1: B1 heavy 1 with Y232L, S296A
# heavy 2: not shown
# light: B1 light
# notes: H1 G236W and S298A; H2 L234Y
# B5: GpH7-TA5/GpH7-B3/GpL16-k0 (antibody, human IgG1, kappa)
# heavy 1: B1 heavy 1 with W234G, S296A
# heavy 2: not shown
# light: B1 light
# notes: H1 L234Y and S298A
# B6: GpH7-TA6/GpH7-B3/GpL16-k0 (antibody, human IgG1, kappa)
# heavy 1: B1 heavy 1 with Y232L, S296A
# heavy 2: not shown
# light: B1 light
# notes: H1 G236W and S298A
# B7: GpH7-A5/GpH7-B3 variant A330_16H/GpL16-k0 (antibody, human IgG1, kappa)
# heavy 1: not shown
# heavy 2: not shown
# light: B1 light
# notes: Heterodimerized IgG1, mutation in the GpH7-B3 chain only; also called He Ab
# B8: GpH7-A5/GpH7-B3 variant I332_13S/GpL16-k0 (antibody, human IgG1, kappa)
# heavy 1: not shown
# heavy 2: not shown
# light: B1 light
# notes: as for B7
# B9: GpH7-A5/GpH7-B3 variant A330_11K/GpL16-k0 (antibody, human IgG1, kappa)
# heavy 1: not shown
# heavy 2: not shown
# light: B1 light
# notes: as for B7
# B10: GpH7-A5/GpH7-B3 variant A330_19Q/GpL16-k0 (antibody, human IgG1, kappa)
# heavy 1: not shown
# heavy 2: not shown
# light: B1 light
# notes: as for B7
# B11: GpH7-A5/GpH7-B3 variant H268_04F/GpL16-k0 (antibody, human IgG1, kappa)
# heavy 1: not shown
# heavy 2: not shown
# light: B1 light
# notes: as for B7
# B12: GpH7-A5/GpH7-B3 variant I332_03V/GpL16-k0 (antibody, human IgG1, kappa)
# heavy 1: not shown
# heavy 2: not shown
# light: B1 light
# notes: as for B7
# B13: GpH7-A5/GpH7-B3 variant D270_10E/GpL16-k0 (antibody, human IgG1, kappa)
# heavy 1: not shown
# heavy 2: not shown
# light: B1 light
# notes: as for B7
# B14: GpH7-A5/GpH7-B3 variant I332_16H/GpL16-k0 (antibody, human IgG1, kappa)
# heavy 1: not shown
# heavy 2: not shown
# light: B1 light
# notes: as for B7
# B15: GpH7-A5/GpH7-B3 variant A330_12R/GpL16-k0 (antibody, human IgG1, kappa)
# heavy 1: not shown
# heavy 2: not shown
# light: B1 light
# notes: as for B7
# B16: GpH7-A5/GpH7-B3 variant I332_18N/GpL16-k0 (antibody, human IgG1, kappa)
# heavy 1: not shown
# heavy 2: not shown
# light: B1 light
# notes: as for B7
# Biological target: T3, FcγRIIIa extracellular domain with C-terminal His tag (human, UniProt P08637 17-208)
# T3 construct: extracellular domain; also called FcgRIIIa; 3a; not shown: His tag at the C terminus
# T3 sequence (P08637 17-208): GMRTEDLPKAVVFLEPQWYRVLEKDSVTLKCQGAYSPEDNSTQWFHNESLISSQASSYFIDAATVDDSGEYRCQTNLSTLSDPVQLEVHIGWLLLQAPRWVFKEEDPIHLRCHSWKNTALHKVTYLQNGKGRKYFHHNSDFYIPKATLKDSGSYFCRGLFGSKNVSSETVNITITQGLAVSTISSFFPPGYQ
# Test: SPR relative binding; GpH7-A5/GpH7-B3/GpL16-k0 = 100
# Outline: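 First, antigen peptide is immobilized on a CM5 chip by amine coupling or, biotinylated, on an SA chip. Next, the antibody is captured and FcγR diluted in running buffer HBS-EP+ is passed over at 25° C. Finally, 10 mM glycine-HCl, pH 1.5 strips the antibody.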
row,FcγRIIIa BINDING ACTIVITY,Binder
1,168 % of control,B1
2,97 % of control,B2
3,201 % of control,B3
4,103 % of control,B4
5,208 % of control,B5
6,228 % of control,B6

# Biological target: T1, FcγRIIa H
# Test: SPR (Biacore), antibody captured, FcγR as analyte; binding relative to GpH7-A5/GpH7-B3/GpL16-k0 = 100
row,He/Con_2aH,Binder
1,101 control = 100,B7
2,110 control = 100,B8
3,109 control = 100,B9
4,102 control = 100,B10
5,111 control = 100,B11
6,105 control = 100,B12
7,102 control = 100,B13
8,109 control = 100,B14
9,108 control = 100,B15
10,110 control = 100,B16

# Biological target: T2, FcγRIIb
# Test: as above
row,He/Con_2b,Binder
1,87.6 control = 100,B7
2,98.4 control = 100,B8
3,95 control = 100,B9
4,90.8 control = 100,B10
5,89.6 control = 100,B11
6,80.7 control = 100,B12
7,76.5 control = 100,B13
8,93 control = 100,B14
9,84.8 control = 100,B15
10,89.9 control = 100,B16
